From US20230382979A1 (ADAPTIVE BIOTECHNOLOGIES, published 2023) come the findings set out here.

Assay [1] concerns the target T1, S1 subunit of the SARS-CoV-2 spike protein, WA01/2020 strain (SARS-CoV-2, WA01/2020 strain, UniProt P0DTC2 16-685).
Assay [2] deals with T2, SARS-CoV-2 spike (S) protein trimer, WA01/2020 strain (SARS-CoV-2, WA01/2020 strain, UniProt P0DTC2 16-1213). The experiment in a line: dose-response ELISA on coated antigen.
The target in assay [3] is T1, S1 subunit of the SARS-CoV-2 spike …. As to the kind of experiment: dose-response ELISA on coated antigen. (In general: In an ELISA, binding on a coated surface is turned into a signal by an enzyme label.)
Assay [4] deals with T3, SARS-CoV-2 nucleocapsid (N) protein (SARS-CoV-2, UniProt P0DTC9 1-419). As to the kind of experiment: ELISA, antibody at 0.1 ug/mL.
In assay [5] the target is T4, S2 subunit of the SARS-CoV-2 spike protein, WA01/2020 strain (SARS-CoV-2, WA01/2020 strain, UniProt P0DTC2 686-1213). The experiment in a line: ELISA, antibody at 0.1 ug/mL.
The target of assay [6] is T1, S1 subunit of the SARS-CoV-2 spike …. As to the kind of experiment: ELISA, antibody at 0.1 ug/mL.
In assay [7] the target is T2, SARS-CoV-2 spike (S) protein trimer, ….
Assay [8] addresses T3, SARS-CoV-2 nucleocapsid (N) protein. The experiment in a line: ELISA screening, antibody concentration not given.
Assay [9] deals with T1, S1 subunit of the SARS-CoV-2 spike …. As to the kind of experiment: ELISA screening, antibody concentration not given.
The target in assay [10] is SARS-CoV (2003) spike protein borne on lentiviral pseudovirus (SARS-CoV (2003), UniProt P59594 14-1255). As to the kind of experiment: cell-based or functional assay.
The target in assay [11] is SARS-CoV-2 spike protein, WA1/2020, borne on lentiviral pseudovirus (SARS-CoV-2, WA01/2020 strain, UniProt P0DTC2 14-1273). As to the kind of experiment: cell-based or functional assay.
The target of assay [12] is T4, S2 subunit of the SARS-CoV-2 spike …. The experiment in a line: dose-response ELISA; antigen taken from the column 'Structural data'.
For assay [13] the target is unchanged. The experiment in a line: ELISA on S2 (S2 Binding EC50).

The Kd is the equilibrium constant for the complex coming apart. Read a high Kd as lower affinity. For orientation: EC50 means the midpoint of the concentration-response curve. Low values mean an effect from little substance, high ones a need for much substance.

B1: antibody 2598 (antibody, V domains shown)
VH: QVQLQESGPGLVKPSGTLSLTCVVSGGSISSSNWWSWVRQPPGKGLEWIGETFHSGSFNYNPSLKSRVTISVDKSKNQFSLKLSSVTAADTAIYYCATTRVGYEGHFYYYGMDVWGQGTTVTVSS
VL: DIQMTQSPSSVSASVGDRVTITCRASQGISSWLAWYQQKPGKAPKLLIYAASSLQSGVPSRFSGSGSGTDFTLTISSLQPEDFATYYCQQANRFPWTFGQGTKVEIK
B1: the Kd in assay [1] came to 0.00823 nM. The EC50 in [2] is 0.043 nM; in assay [3] it was 0.084 nM.

B2: antibody 2019 (antibody, V domains shown)
VH: QVQLVESGGGVVQPGGSLSLSCAASGLSFSSYGMHWVRQAPGKGLEWVAFIRYDVSNKYYADSVKGRFTISRDNSKNTLYLQMNSLRVEDTAVYYCATWAPLDDGMDVWGQGTTVTVSS
VL: SYELTQPPSVSVSPGQTARITCSGDALPKQYAYWYQQKPGQAPVLVIYKDTERPSGIPERFSGSSSGTTVTLTISGVQAEDEADYYCQSGDSSGTFYVVFGGGTKLTVL
Consider B2, for which the binding result in assay [4], in [5] and in [6] was “no binding (tested: 0.1 ug/mL)” throughout. In assay [7], this molecule came in with a dissociation constant Kd of 0.057 nM. This molecule also showed a half-maximal effective concentration (EC50) in assay [2] of 0.024 nM.

B3: antibody 1238 (antibody, V domains shown)
VH: QVQLVQSGSELKKPGASVKVSCKASGYTFTNYGMNWVRQAPGQGLEWMGWINTNTGNPTNAQGFTGRFVFSLDTSVSTAYLQINSLKGEDTAVYYCARVADTGEMDVWGQGTTVTVSS
VL: SYELTQPPSVSVSPGQTARITCSGDALPKQYAYWYQQKPGQAPVLVIYKDSERPSGIPERFSGSSSGTTVTLTISGVQAEDEADYYCQSADSSGSYNWVFGGGTKLTIL
Regarding B3, the binding result in assay [4] and in [5] was “no binding (tested: 0.1 ug/mL)” in each case. This molecule also came in with a dissociation constant Kd in assay [1] of 0.027 nM. Further, the EC50 in assay [2] was found to be 0.069 nM; in [3] it was 0.028 nM.

B4: antibody 2854 (antibody, V domains shown)
VH: QVQLVQSGAEVKKPGSSVKVSCKASGGTFSSYAISWVRQAPGQGLEWMGGIIPIFHTANYAQKFQGRVTITADESTSTTYVELSSLRSEDTAMYYCATLPITIFGEEYSFDNWGQGTLVTVSS
VL: DVVMTQSPLSLPVTLGQPASISCRSSQSLVHSDGNTYLSWFQQRPGQSPRRLIYKVSDRDSGVPDRFSGSGSGTDFTLKISRVEAEDVGIYYCMQGTHWPPLTFGGGTKVEIK
For B4, the binding result in [4], in assay [5] and in [6] was “no binding (tested: 0.1 ug/mL)” in each case. In assay [7], this molecule yielded a Kd of 0.112 nM. This molecule also gave a half-maximal effective concentration (EC50) in [2] of 0.152 nM.

B5: antibody 1814 (antibody, V domains shown)
VH: QVQLQESGPGLVKPSETLSLTCSVSGGSINYYYWSWIRQTPGQGLEWIGFIYSSGTTNYNPSLKSRVTMSKDTAKKQFSLKLTSVTAADSAVYYCARHSRSCTNGVCQTYYYYALDVWGHGTTVTVSS
VL: QSVLTQPPSVSGAPGQRVTISCTGSGSNIGSGYDVHWYQQLPGRAPKLLIYRNRNRPSGVPDRFSGSKSGTSASLAIAGLQSEDEGDYFCQSYDGRLGESAVFGGGTRLTVL
Regarding B5, the binding result in assay [8] and in [9] was “no binding (tested: not printed)” each time. The “Pseudo Neut, SARS-CoV 2003 IC50” value in assay [10] is 6.5 nM. Moreover, the “Pseudo Neut, WA1/2020 IC50 (pM)” value in [11] is 171 pM. For the same molecule, the EC50 in assay [12] and in assay [13] was 0.077 nM throughout.

B6: antibody 1815 (antibody, V domains shown)
VH: QVQLQESGPGLVKPSETLSLTCSVSGGSINYYYWSWIRKSPGKGLEWIGFIYSSGTTNYNPSLKSRVSMSIGTSKRQFSLKLSSVTAADSAVYYCARHSRSCTNGVCQTYYYYALDVWGHGTTVTVSS
VL: QSVLTQPPSVSGAPGQRVTISCTGSSSNIGAGYDVHWYQQLPGTAPKLLIYANTHRPSGVPDRFSASKSGTSASLAIAGLQAEDEGDYYCQSYDGSLSESAVFGGGTRLTVL
Regarding B6, the binding result in [8] and in assay [9] was “no binding (tested: not printed)” in each case. The “Pseudo Neut, SARS-CoV 2003 IC50” value in assay [10] came out at 26 nM. The “Pseudo Neut, WA1/2020 IC50 (pM)” value in [11] was found to be 10.2 pM. Also, the EC50 in assay [12] and in assay [13] was 0.127 nM each time.

B7: antibody 1671 (antibody, V domains shown)
VH: EVQLVESGGGLVKPGGSLRLSCAASGFTFSTYNMNWVRQAPGKGLEWVSSISSNSNYIYYADSMKGRFTISRDNAKNSLYLQMNSLRAEDTAVYYCARDMDPLPYFDWLLYAFDVWGQGTMVTVSS
VL: EIVLTQSPGTLSLSPGERATLSCRASQSVSGSYLAWYQQKPGQAPRLLIYGASSRATGIPDRFSGSGSGTDFTLTISRLEPEDFAVYYCQQYGSPIFTFGPGTKVDIK
Regarding B7, the Kd in assay [1] was 0.0506 nM.

B8: antibody 2646 (antibody, V domains shown)
VH: QVQLVQSGAEVKKPGASVKVSCKVSGYTLTELSIHWVRQAPGKGLEWMGGFDPEDAETIYAQKFQGRVTMTEDTSTDTAYMELSSLRSEDTAVYYCATATAVAGTVFNYQYHYGLDFWGQGTTVTVSS
VL: not shown
B8: the dissociation constant (Kd) in assay [1] came to 0.00296 nM. The values for the concentration giving a half-maximal response (EC50) in [2] and in [3] were 0.024 nM and 0.033 nM, respectively.

B9: antibody 2866 (antibody, V domains shown)
VH: QVQLVQSGAEVKKPGSSVKVSCKASGGTFSSYSISWVRQAPGQGLEWMGGLAPIFHTPNYAQKFQGRVTITADESTSTAYMELSSLRSEDTAVYYCARVAGAGWGVYGAFDYWGQGTLVTVSS
VL: not shown
Turning to B9, the binding result in [4], in assay [5] and in assay [6] was “no binding (tested: 0.1 ug/mL)” throughout. The same molecule had an equilibrium dissociation constant (Kd) in [7] of 0.154 nM. The same molecule showed an EC50 in [2] of 0.182 nM.

B10: antibody 1871 (antibody, V domains shown)
VH: EVQLVESGGGLVKPGGSLRLSCVASGFSFSIYSMNWVRQAPGKGLEWVSYISSSSSYKYYADSVKGRFSVSRDNAKNSLYLQLNGLRAEDTAVYYCARDGYCPKGVCTYYGMDVWGQGTTVTVSA
VL: EIVMTQSPATLSVSPGERVTLSCRASQSVRSRLAWFQQKPGQAPRLLIYDASIRATGIPARFSGSGSGTEFTLIISSLQSEDFAVYYCQQYDNWPPAYTFGQGTKLEIK
For B10, the binding result in assay [8] and in [9] was “no binding (tested: not printed)” each time. Also, the “Pseudo Neut, SARS-CoV 2003 IC50” value in assay [10] was 30 nM. Further, in assay [11], the “Pseudo Neut, WA1/2020 IC50 (pM)” value came to 440 pM. Further, the EC50 in [12] and in [13] was 0.103 nM throughout.

B11: antibody 2788 (antibody, V domains shown)
VH: QVQLVQSGAEVKKPGASVKVSCKVSGYTLIELSMHWVRQAPGKGLEWMGGFDPEGAETIYAQKFQGRVTMTEDTSTDTAYMELSSLRSDDTAVYYCATGPAVFAANWFDPWGQGTLVTVSS
VL: QSALTQPPSASGSPGQSVTISCTGTSSDIGNYNNVSWYQQHPGKAPKLMIYDVIKRPSGVPDRFSGSKSGNTASLTVSGLQAEDEADYYCSSYAGKSYVFGTGTKVTVL
For B11, the binding result in [4] and in assay [5] was “no binding (tested: 0.1 ug/mL)” each time. For the same molecule, the half-maximal effective concentration (EC50) in [2] turned out to be 0.021 nM; in assay [3] it was 0.058 nM.
